Here are results for one molecule from article PMC3260263, “Structural Characterization of a Novel Chlamydia pneumoniae Type III Secretion-Associated Protein, Cpn0803” (PLoS ONE, 2012).

Series [1] concerns the molecule itself. Nature of the series: SEC; Superdex S200 10/300 GL, 20 mM Tris pH 7, 100 mM KCl, 5 mg/mL protein; column standardized with LMW and HMW standards; peak fractions checked by anti-His Western blot. A general note: Size exclusion chromatography separates by hydrodynamic size, large species first.
Series [2] deals with GST-CdsF (Chlamydia pneumoniae CWL029). Nature of the series: ELISA; glutathione plate assay: GST fusion captured from lysate on glutathione coated plates, bacterial lysate over-expressing the His-tagged protein added, 4°C 2 hours; washed with 500 mM NaCl, 0.1% Triton X-100, 50 mM TRIS-HCl pH 7.5; anti-6xHis antibody, HRP, OPD, absorbance at 450 nm; positive if two standard deviations above GST alone. In general terms: In an ELISA, binding on a coated surface is turned into a signal by an enzyme label.

Series [3] concerns the target GST-CdsN (Chlamydia pneumoniae CWL029). The series is described as above.
The target in series [4] is GST-CdsQ (Chlamydia pneumoniae CWL029). The series is described as above.

Several values for one entry are separate records, joined by “and”; a condition that tells them apart may be missing. Equal entries are not always repeated.

B1: His-Cpn0803 (natural protein)
chain: MAAKTKTLELEDNVFLLLEGNLKRIFATPIGYTTFREFQNVVFNCANGQQEIANFFFEMLINGKLTQELAPQQKQAAHSLIAEFMMPIRVAKDIHERGEFINFITSDMLTQQERCIFLNRLARVDGQEFLLMTDVQNTCHLIRHLLARLLEAQKNPVGEKNLQEIQEEITSLKNHFDELTKALQ
notes: Cpn0803 of Chlamydia pneumoniae CWL029 (ortholog of C. trachomatis CT584), 184 amino acids; Hexamer and dimer in solution by gel filtration; a SeMet derivative was used for phasing only; also called recombinant His-Cpn0803; full-length Cpn0803; source: E. coli, over-expressed, in lysate (glutathione plate assay, GST pull-down); E. coli, purified on a column eluted with 300 mM imidazole …
As usually defined, the stoichiometry N is a count of units in the complex or per binding partner. For the molecule B1, in series [1], the “stoichiometry N” value is 6 and 2. Moreover, the results for the absorbance (450 nm) (absorbance units) in series [2], in series [3] and in series [4] were 0.36, 0.38 and 0.41, respectively.
